{"source": "patent US20260240959A1", "about": "“METHODS FOR IN VIVO EDITING OF KLKB1” (INTELLIA THERAPEUTICS, INC., priority 2022, published 2026)", "molecules": {"B1": {"name": "G013901: cynomolgus specific KLKB1 guide RNA (SEQ ID NO: 409); dosed as LNP formulation with Cas9 mRNA (nucleic acid)", "guide": "mG*mG*mA*rUrUrArCrArUrArUrGrGrGrArCrArCrArArGrUrUrUrUrArGrAmGmCmUmAmGmAmAmAmUmAmGmCrArArGrUrUrArArArArUrArArGrGrCrUrArGrUrCrCrGrUrUrArUrCrAmAmCmUmUmGmAmAmAmAmAmGmUmGmGmCmAmCmCmGmAmGmUmCmGmGmUmGmCmU*mU*mU*mU"}}, "system": "plasma kallikrein", "assay": "Plasma kallikrein activity in cynomolgus monkeys", "format": "in vivo, cynomolgus monkey", "settings": "for Kallikrein Activity (% of basal activity), Mean: n=3", "experimental": "Cynomolgus monkeys were treated in cohorts of n=3. This study was conducted with LNP formulations according to Example 1. […]. Animals were dosed at 1.5, 3, or 6 mg per kg doses based on total RNA cargo. Indel formation (percent editing) was measured by NGS. Total kallikrein activity and plasma kallikrein protein level were measured as described above. […]", "note": "In the oligonucleotide strings, read from the 5' end, every base follows the letter of its sugar. An asterisk marks phosphorothioate; unmarked linkages are phosphodiester. Other units and linkages are bracketed, terminal groups are in braces. A string of capitals states the bases alone. m = 2'-O-methyl; r = 2'-OH (RNA)", "data": [{"molecule": "B1", "values": [{"measurement": "durability of response in NHPs", "setting": "cynomolgus monkey, in vivo", "value": "durable through one year"}, {"measurement": "Kallikrein Activity (% of basal activity), Mean", "setting": "1.5 mpk, Day 7", "value": "67.8 % of basal activity"}, {"measurement": "Kallikrein Activity (% of basal activity), Mean", "setting": "1.5 mpk, Day 14", "value": "31.1 % of basal activity"}, {"measurement": "Kallikrein Activity (% of basal activity), Mean", "setting": "1.5 mpk, Day 28", "value": "26.8 % of basal activity"}, {"measurement": "Kallikrein Activity (% of basal activity), Mean", "setting": "1.5 mpk, Day 42", "value": "19.8 % of basal activity"}, {"measurement": "Kallikrein Activity (% of basal activity), Mean", "setting": "1.5 mpk, Day 56", "value": "8.8 % of basal activity"}, {"measurement": "Kallikrein Activity (% of basal activity), Mean", "setting": "1.5 mpk, Day 70", "value": "6 % of basal activity"}, {"measurement": "Kallikrein Activity (% of basal activity), Mean", "setting": "1.5 mpk, Day 84", "value": "10.6 % of basal activity"}, {"measurement": "Kallikrein Activity (% of basal activity), Mean", "setting": "1.5 mpk, Day 105", "value": "23.3 % of basal activity"}, {"measurement": "Kallikrein Activity (% of basal activity), Mean", "setting": "1.5 mpk, Day 119", "value": "12.2 % of basal activity"}, {"measurement": "Kallikrein Activity (% of basal activity), Mean", "setting": "1.5 mpk, Day 147", "value": "11.9 % of basal activity"}, {"measurement": "Kallikrein Activity (% of basal activity), Mean", "setting": "1.5 mpk, Day 161", "value": "21 % of basal activity"}, {"measurement": "Kallikrein Activity (% of basal activity), Mean", "setting": "1.5 mpk, Day 180", "value": "19.2 % of basal activity"}, {"measurement": "Kallikrein Activity (% of basal activity), Mean", "setting": "1.5 mpk, Day 238", "value": "16.6 % of basal activity"}, {"measurement": "Kallikrein Activity (% of basal activity), Mean", "setting": "1.5 mpk, Day 252", "value": "19.1 % of basal activity"}, {"measurement": "Kallikrein Activity (% of basal activity), Mean", "setting": "1.5 mpk, Day 266", "value": "13.9 % of basal activity"}, {"measurement": "Kallikrein Activity (% of basal activity), Mean", "setting": "1.5 mpk, Day 280", "value": "17.5 % of basal activity"}, {"measurement": "Kallikrein Activity (% of basal activity), Mean", "setting": "1.5 mpk, Day 294", "value": "17 % of basal activity"}, {"measurement": "Kallikrein Activity (% of basal activity), Mean", "setting": "1.5 mpk, Day 308", "value": "18.2 % of basal activity"}, {"measurement": "Kallikrein Activity (% of basal activity), Mean", "setting": "1.5 mpk, Day 326", "value": "13.3 % of basal activity"}, {"measurement": "Kallikrein Activity (% of basal activity), Mean", "setting": "1.5 mpk, Day 333", "value": "15.9 % of basal activity"}, {"measurement": "Kallikrein Activity (% of basal activity), Mean", "setting": "1.5 mpk, Day 347", "value": "16.9 % of basal activity"}, {"measurement": "Kallikrein Activity (% of basal activity), Mean", "setting": "1.5 mpk, Day 365", "value": "24.1 % of basal activity"}, {"measurement": "Kallikrein Activity (% of basal activity), Mean", "setting": "3 mpk, Day 7", "value": "42.8 % of basal activity"}, {"measurement": "Kallikrein Activity (% of basal activity), Mean", "setting": "3 mpk, Day 14", "value": "15.9 % of basal activity"}, {"measurement": "Kallikrein Activity (% of basal activity), Mean", "setting": "3 mpk, Day 28", "value": "10.6 % of basal activity"}, {"measurement": "Kallikrein Activity (% of basal activity), Mean", "setting": "3 mpk, Day 42", "value": "8.6 % of basal activity"}, {"measurement": "Kallikrein Activity (% of basal activity), Mean", "setting": "3 mpk, Day 56", "value": "3.4 % of basal activity"}, {"measurement": "Kallikrein Activity (% of basal activity), Mean", "setting": "3 mpk, Day 70", "value": "3 % of basal activity"}, {"measurement": "Kallikrein Activity (% of basal activity), Mean", "setting": "3 mpk, Day 84", "value": "4.2 % of basal activity"}, {"measurement": "Kallikrein Activity (% of basal activity), Mean", "setting": "3 mpk, Day 105", "value": "6 % of basal activity"}, {"measurement": "Kallikrein Activity (% of basal activity), Mean", "setting": "3 mpk, Day 119", "value": "3.4 % of basal activity"}, {"measurement": "Kallikrein Activity (% of basal activity), Mean", "setting": "3 mpk, Day 147", "value": "4.5 % of basal activity"}, {"measurement": "Kallikrein Activity (% of basal activity), Mean", "setting": "3 mpk, Day 161", "value": "6 % of basal activity"}, {"measurement": "Kallikrein Activity (% of basal activity), Mean", "setting": "3 mpk, Day 180", "value": "4.7 % of basal activity"}, {"measurement": "Kallikrein Activity (% of basal activity), Mean", "setting": "3 mpk, Day 238", "value": "4.7 % of basal activity"}, {"measurement": "Kallikrein Activity (% of basal activity), Mean", "setting": "3 mpk, Day 252", "value": "8.2 % of basal activity"}, {"measurement": "Kallikrein Activity (% of basal activity), Mean", "setting": "3 mpk, Day 266", "value": "8.9 % of basal activity"}, {"measurement": "Kallikrein Activity (% of basal activity), Mean", "setting": "3 mpk, Day 280", "value": "6.8 % of basal activity"}, {"measurement": "Kallikrein Activity (% of basal activity), Mean", "setting": "3 mpk, Day 294", "value": "7.9 % of basal activity"}, {"measurement": "Kallikrein Activity (% of basal activity), Mean", "setting": "3 mpk, Day 308", "value": "7.4 % of basal activity"}, {"measurement": "Kallikrein Activity (% of basal activity), Mean", "setting": "3 mpk, Day 326", "value": "5.5 % of basal activity"}, {"measurement": "Kallikrein Activity (% of basal activity), Mean", "setting": "3 mpk, Day 333", "value": "6.8 % of basal activity"}, {"measurement": "Kallikrein Activity (% of basal activity), Mean", "setting": "3 mpk, Day 347", "value": "4.1 % of basal activity"}, {"measurement": "Kallikrein Activity (% of basal activity), Mean", "setting": "3 mpk, Day 365", "value": "10 % of basal activity"}, {"measurement": "Kallikrein Activity (% of basal activity), Mean", "setting": "6 mpk, Day 7", "value": "18.2 % of basal activity"}, {"measurement": "Kallikrein Activity (% of basal activity), Mean", "setting": "6 mpk, Day 14", "value": "5.3 % of basal activity"}, {"measurement": "Kallikrein Activity (% of basal activity), Mean", "setting": "6 mpk, Day 28", "value": "3.9 % of basal activity"}, {"measurement": "Kallikrein Activity (% of basal activity), Mean", "setting": "6 mpk, Day 42", "value": "3.6 % of basal activity"}, {"measurement": "Kallikrein Activity (% of basal activity), Mean", "setting": "6 mpk, Day 56", "value": "4.2 % of basal activity"}, {"measurement": "Kallikrein Activity (% of basal activity), Mean", "setting": "6 mpk, Day 70", "value": "3.9 % of basal activity"}, {"measurement": "Kallikrein Activity (% of basal activity), Mean", "setting": "6 mpk, Day 84", "value": "4.7 % of basal activity"}, {"measurement": "Kallikrein Activity (% of basal activity), Mean", "setting": "6 mpk, Day 105", "value": "4.7 % of basal activity"}, {"measurement": "Kallikrein Activity (% of basal activity), Mean", "setting": "6 mpk, Day 119", "value": "3 % of basal activity"}, {"measurement": "Kallikrein Activity (% of basal activity), Mean", "setting": "6 mpk, Day 147", "value": "3 % of basal activity"}, {"measurement": "Kallikrein Activity (% of basal activity), Mean", "setting": "6 mpk, Day 161", "value": "5.6 % of basal activity"}, {"measurement": "Kallikrein Activity (% of basal activity), Mean", "setting": "6 mpk, Day 180", "value": "5 % of basal activity"}, {"measurement": "Kallikrein Activity (% of basal activity), Mean", "setting": "6 mpk, Day 238", "value": "3.2 % of basal activity"}, {"measurement": "Kallikrein Activity (% of basal activity), Mean", "setting": "6 mpk, Day 252", "value": "3.1 % of basal activity"}, {"measurement": "Kallikrein Activity (% of basal activity), Mean", "setting": "6 mpk, Day 266", "value": "2.7 % of basal activity"}, {"measurement": "Kallikrein Activity (% of basal activity), Mean", "setting": "6 mpk, Day 280", "value": "3 % of basal activity"}, {"measurement": "Kallikrein Activity (% of basal activity), Mean", "setting": "6 mpk, Day 294", "value": "2.9 % of basal activity"}, {"measurement": "Kallikrein Activity (% of basal activity), Mean", "setting": "6 mpk, Day 308", "value": "3 % of basal activity"}, {"measurement": "Kallikrein Activity (% of basal activity), Mean", "setting": "6 mpk, Day 326", "value": "3.5 % of basal activity"}, {"measurement": "Kallikrein Activity (% of basal activity), Mean", "setting": "6 mpk, Day 333", "value": "3.3 % of basal activity"}]}]}
